Laboratory results published in patent US20150299277A1, “AGENT FOR TREATING OR PREVENTING SYSTEMIC INFLAMMATORY RESPONSE SYNDROME” (THE UNIVERSITY OF TOKYO, priority 2012, published 2015).
Entries after “also recorded” stand apart in the source; their conditions may differ. Ends that are not written are not given here.

Legend:
histone H4 on HUVEC = assay: Cytotoxic assay: suppression of histone cytotoxicity on HUVEC; assay type: cell-based, human
Experimental: (§1) Normal human umbilical vein endothelial cells (HUVECs) were cultured in EGM2 medium (Clonetics). The cells after culture were washed with PBS, added with Opti-MEM medium containing an product of incubation of activated protein C (APC), PTX3, C reactive protein (CRP) or Serum amyloid P component (SAP) with histone for 1 hr, and the cells were further cultured for 1 hr. Propidium iodide (PI) was added to the medium after culture at a final concentration of 10 μg/mL, and the cells were stained for 10 min. The cells were washed with PBS, detached and analyzed by flow cytometry.
Using each recombinant histone instead of Calf Thymus Histones, a suppressive effect of full-length PTX3 or the N-terminal domain of PTX3 on histone cytotoxicity was studied in the same manner.
Lastly, capacity of suppressing the cytotoxic activity of histone was confirmed. Since this experiment requires a certain amount of protein and an endotoxin-elimination as treatment, a protein was expressed and purified at a 500 mL culture scale, and subjected to an endotoxin-elimination treatment (FIG. 18). In the case of PTX3 N-terminal domain, about 10 mg was obtained at a 500 mL culture scale, and a loss by the endotoxin-elimination treatment was scarcely observed. […] A capacity of fragment proteins obtained at a 500 mL scale on HUVEC to suppress histone cytotoxicity was studied. […]

[1] = system: Calf Thymus Histones on HUVEC; assay: as above; assay type: cell-based, human
Experimental: After culturing for 1 hr in a medium concurrently containing 100 μg/mL Calf Thymus Histones and APC (200 nM), PTX3 (40 μg/mL), CRP (40 μg/mL) or SAP (40 μg/mL), the level of toxic activity was measured by FACS.
as §1
The histone cytotoxicity on HUVEC was evaluated by propidium iodide (PI) staining.
Lastly, capacity of suppressing the cytotoxic activity of histone was confirmed. Since this experiment requires a certain amount of protein and an endotoxin-elimination as treatment, a protein was expressed and purified at a 500 mL culture scale, and subjected to an endotoxin-elimination treatment (FIG. 18). In the case of PTX3 N-terminal domain, about 10 mg was obtained at a 500 mL culture scale, and a loss by the endotoxin-elimination treatment was scarcely observed. […] A capacity of fragment proteins obtained at a 500 mL scale on HUVEC to suppress histone cytotoxicity was studied. […] In consideration of the experiments relating to the binding and aggregation, all fragments were considered to possibly have a certain level of suppressive capacity.

Calf Thymus Histones = assay: Aggregation with histone, absorbance at 310 nm; assay type: binding; details: mixture with Calf Thymus Histones
Experimental: The lower left figure and the lower right figure show the measurement results of absorbance at 310 nm of a mixture of a wild-type or oligomer formation capacity-deficient mutant of PTX3 N-terminal domain having each concentration and 0.1 mg/mL Calf Thymus Histones at 1:1 vol.
The aggregation activity of PTX3 and other pentraxins to histone was evaluated. Calf Thymus Histones (50 μg/mL) were mixed with a PTX3 fragment or the other pentraxin at each concentration, and the absorbance at the wavelength of 310 nm was measured. Before mixing, samples were dialyzed against 4 mM CaCl2-containing TBS.

## PTXN18: E. coli-expressed fragment of about 50 amino acids of PTX3 N-terminal domain with His-tag and TEV sequence, probably amino acids 18-67 (ENLYFQGENSDDYDLMYVNLDNEIDNGLHPTEDPTPCDCGQEHSEWDKLFIMLENSQ; not fully specified; cysteine pairing not given here)
Histone H4 on HUVEC
  capacity to suppress cytotoxicity of recombinant histone H4 on HUVEC: almost equivalent to that of the PTX3 N-terminal domain
[1]
  capacity to suppress cytotoxicity of bovine thymus-derived histone on HUVEC: almost equivalent to that of the PTX3 N-terminal domain

## SAP: Serum amyloid P component, short pentraxin used as comparator [reference compound]
Calf Thymus Histones
  aggregation with Calf Thymus Histones, absorbance at 310 nm: no aggregation capacity; also recorded: scarcely showed an aggregation activity
[1]; 100 μg/mL Calf Thymus Histones, 40 μg/mL protein, 1 hr, PI staining, FACS
  suppression of toxic activity of Calf Thymus Histones on HUVEC: do not have such suppressive effect
